The results in this text go back to paper PMC12747267 (bioRxiv, 2025).

This series deals with the molecule itself. The series can be described thus: cryo-EM structure.

B1: human myosin regulatory light chain (RLC, MYL12B) (natural protein, UniProt O14950 1-172, looked up)
chain: MSSKKAKTKTTKKRPQRATSNVFAMFDQSQIQEFKEAFNMIDQNRDGFIDKEDLHDMLASLGKNPTDAYLDAMMNEAPGPINFTMFLTMFGEKLNGTDPEDVIRNAFACFDEEATGTIQEDYLRELLTTMGDRFTDEEVDELYREAPIDKKGNFNYIEFTRILKHGAKDKDD
Regarding B1, the binding result is on record as “binds”.
